Read-outs that look alike come from different tables or passages of the source.

A short description of series [1]: Study 101: pharmacokinetics of single doses in healthy subjects. The class given is in vivo, human. An excerpt: (§1) The primary objective of this Phase 1, double-blind, randomized, placebo-controlled study was to determine the safety, tolerability, and pharmacokinetics of single ascending doses of DC009 drug product administered by 15-minute IV infusion in healthy subjects. The secondary objectives were to characterize the pharmacodynamics of single-ascending doses, explore the pharmacokinetic-pharmacodynamic relationships of single-ascending doses, and to determine the RP2D of the DC009 drug product.
(§2) The subject population was healthy adult male and female subjects between the ages of 18 and 65 years. Sixteen healthy subjects completed the study. All subjects received a single dose of DC009 drug product or placebo administered via a 15-minute IV infusion.
Cohort 1 (8 subjects) was administered 0.05 mg/kg DC009 drug product or placebo, and Cohort 0 (8 subjects) was administered 0.025 mg/kg DC009 drug product or placebo.
Primary Endpoints: • Nature and severity of adverse events (AEs) and number of subjects with AEs • Changes from baseline in vital signs, electrocardiogram (ECG) results, laboratory abnormalities, plasmin-antiplasmin complex, euglobulin clot lysis time, platelet aggregation, and physical examination findings • Pharmacokinetic parameters: maximum plasma concentration (Cmax), time to reach the observed maximum (peak) concentration (Tmax), area under the plasma concentration-time curve from time zero to the time of the last quantifiable concentration (AUC0-t), elimination half-life (T1/2), total body clearance of the drug from plasma (CL), and volume of distribution Secondary Endpoints • Pharmacodynamic effects of DC009 drug product on blood pressure, thrombin time (TT), prothrombin time (PT), euglobulin clot lysis time, and activated partial thromboplastin time (aPTT) up to 48 hours after dosing • Relationship between DC009 plasma concentrations and the selected PD and safety parameters • RP2D (recommended phase II dose) Results
The pharmacokinetic parameters of DC009 drug product were assessed included maximum plasma concentration (Cmax), time to reach Cmax (Tmax), area under the plasma concentration-time curve from time zero to infinity (AUC0-∞), area under the plasma concentration-time curve from time zero to the time of the last quantifiable concentration (AUC0-t), elimination half-life (T1/2), total body clearance of the drug from plasma (CL), and volume of distribution at steady state (Vss). A single sample of blood was collected at the following time points for the quantification of DC009 in plasma: at predose, 5, 10, 15 (end of infusion), 20, 25, 30, and 45 minutes; and at 1, 2, 4, 6, 12, 18, and 24 hours after infusion was initiated.

Series [2] can be described thus: Study 101: safety and tolerability of single doses in healthy subjects. The series is classed as in vivo. The note with it: both sexes, human, plasma, intravenous; from Subject 001-008 and Subject 001-042, 0.05 mg/kg; read-out: Cmax at which DC009 was tolerable in human.
Description: as §1, §2
Cohort 1 (8 subjects) was administered 0.05 mg/kg DC009 drug product or placebo, and Cohort 0 (8 subjects) was administered 0.025 mg/kg DC009 drug product or placebo. […]

For series [3], the system named is embolic middle cerebral artery occlusion (MCAO) rats. The series can be described thus: Embolic middle cerebral artery occlusion (MCAO) model in Wistar rat (Examples 2, 7-9). The series is classed as in vivo. The note with it: for Mean neurological severity score (NSS): 24 hours post-MCAO, scale 0-18; for blood flow compared to saline treated group: measured for 3 hours, p<0.0001 vs saline. The method, then: At Day 0, anesthetize the rats to collect blood from the femoral artery to prepare the homologous clot. Create a partial arteriotomy with a microscissors and then insert a sterile PE-50 tubing ([…]) along the artery. Arterial blood collected in this length of the PE-50 tubing commonly generates ˜10 indusial clots that are suitable for MCAO. Keep the clot in the tube for 2 hours at room temperature and subsequently retain for 22 hours at 4° C.
At Day 1, to prepare the embolus, cut the clot containing PE-50 tubing into 32 mm segment in length and connect the segment with a 3 ml saline filled syringe with 23G needle. Push the syringe to flush the clot out of the PE-50 tubing into saline filled Petri dish. Draw and flush the clot into and out of the PE-10 tubing (draw from clot's end to avoid folding and twisting of the clot), respectively, 10-15 times to wash out the majority of the entrapped red blood cells until the clot without further RBCs releasing. Connect the PE-10 tubing to the modified PE-50 catheter and shift the clot into PE-50 catheter. Then, the modified PE-50 catheter is connected to a 100 μl Hamilton microsyringe. The clot is now ready to be used.
At Day 1, anesthetize the rats. Bluntly dissect the carotid sheath along the common carotid artery (CCA) until the ECA (ipsilateral external carotid artery), PPA (pterygopalatine artery), and ICA (internal carotid artery) bifurcation is exposed. […] Prepare laser Doppler flow probe into the tube of head. Temporarily clamp the CCA, PPA, and ICA with clip and apply a 4-0 silk suture loosely around the trunk of the ECA near bifurcation. Release the clip slowly and further advance the catheter within the ICA to enter the intracranial segment of the ICA until resistance is felt. The total length of the catheter that has been advanced is −19-22 mm from the ECA arteriotomy site. Retract the catheter 1-2 mm and slowly inject the clot with 5-10 μl of saline at rate of 10 μl/min. The percentage of regional cerebral flow (rCBF) decrease into ˜20-30% after clot injection. Wait for 30 minutes to let the clot stable at the ICA. Retract the catheter until its tip reaches the ECA/ICA bifurcation. Re-apply a clip to temporarily clamp the CCA and the ICA and then withdraw the catheter from the arteriotomy. Tighten the 4-0 silk suture around the ECA trunk to ligate the arteriotomy. Remove the clip. Wait for another 30 minutes to make sure the animal is stable and there is no blooding issue. Close the incision and terminate the anesthesia.
Neurological deficits were assessed at 24 h after MCAO surgery. The neurological function was graded on a scale of 0-18, with 0 representing normal function and 18 representing maximum neurological deficits (see FIG. 2).
24 hours after the induction of MCAO, anesthetize the rat with 5% isoflurane and use normal saline to do the perfusion from heart (150 ml). Decapitate the rat and collect the brain. Rinse the collected dish and matrix with PBS before used. To tear out clot after taking photo. Slice the brain coronally into […] 2-mm slices with a brain matrix on ice (Cut the brain into 8 pieces). Incubate the brain slices in 2% 2,3,5-triphenyltetrazolium chloride (TTC) (Sigma-Aldrich) in 1×PBS for 20 min at room temperature (avoid light) and record the result by photo. Then, using ImageJ to determine the size and extent of the infarction.
The caudal sides of all the TTC sections were scanned using a digital camera, and the images were stored as JPEG. The non-ischemic and ischemic hemisphere infarct areas were measured using image J (Image J, Bethesda, MD) software. All eight infarct area measurements were calculated with a 2 mm distance between the slices. […]

Setting [4] is: 0.025 mg/kg dose to the 0.05 mg/kg dose.

As for `CC(NC(=O)C1CCCN1)C(=O)NC(CCCCN)C(=O)NCCCCC(NC(=O)C1Cc2cc(O)c(O)cc2C(C)(C)N1)C(=O)O` (stereo not drawn) [DC009, 3S-6,7-dihydroxy-1,1-dimethyl-1,2,3,4-tetrahydro-isoquinoline-3-acyl-Lys(Pro-Ala-Lys)], the “dose-normalized geometric mean ratio for AUC0-inf” value in series [1] (setting [4]) is 1.40. The “dose-normalized geometric mean ratio for Cmax” value in series [1] (setting [4]) amounted to 1.46. Besides, the “time measurable in plasma samples after the start of the infusion” value in series [1] (0.025 and 0.05 mg/kg, single 15-minute IV infusion) is given as “only measurable within the first half-hour”. In series [1] (0.025 vs 0.05 mg/kg), the “dose proportionality of exposure” value is on record as “approximately dose proportional”. For the same compound, the Cmax in series [1] (Cohort 1, 0.05 mg/kg, single 15-minute IV infusion, individual subjects) is 120 ng/mL; in series [1] (both sexes, human, plasma, iv, 0.025 mg/kg, Cohort 0, 0.025 mg/kg, single 15-minute IV infusion, Mean ± SEM, read-out: Cmax), less than 110 ng/mL; in series [1] (both sexes, human, plasma, iv, 0.05 mg/kg, Cohort 1, 0.05 mg/kg, single 15-minute IV infusion, Mean ± SEM, read-out: Cmax), less than 110 ng/mL; in series [1] (both sexes, human, plasma, iv, 0.05 mg/kg, Cohort 1, 0.05 mg/kg, single 15-minute IV infusion, individual subjects, read-out: Cmax), 152 ng/mL; in series [2], approximately 150 ng/mL. The half-life in series [1] (both sexes, human, plasma, iv, 0.025 and 0.05 mg/kg, single 15-minute IV infusion, read-out: T1/2, range) is 3 to 4.2 min; in series [1] (both sexes, human, plasma, iv, 0.025 and 0.05 mg/kg, single 15-minute IV infusion, read-out: mean of T1/2 (converted)) it was 3.24 min. Moreover, in series [1] (both sexes, human, plasma, 0.025 and 0.05 mg/kg, single 15-minute IV infusion), the Tmax was 6 to 18 min. Besides, the “Mean neurological severity score (NSS)” value in series [3] (DC009 0.005 mg/kg, 15-minute IV infusion 3 hours after stroke onset) turned out to be 7.13 ± 0.64. Besides, in series [3] (DC009 0.025 mg/kg at 3 and 6 hours post MCAO surgery, 24 hours after stroke, TTC, FIG. 4), the “infarct size compared to saline and rtPA treated groups” value was “significant smaller infarct size”. Also, the “restoring occluded blood flow” value in series [3] (DC009 0.05 mg/kg, 15-minute IV infusion 1 hour after stroke onset, FIG. 3) is listed as “good efficacy”. Besides, the “blood flow compared to saline treated group” value in series [3] (DC009 0.05, 0.1, 0.2 and 0.4 mg/kg, 15-minute IV infusion 1 hour after stroke onset, FIG. 3) is “increased”.
Regarding “rtPA: Alteplase (Activase), a recombinant tissue-type plasminogen activator (rtPA) [reference compound]”, in series [3] (rtPA 10 mg/kg (10% IV bolus, rest infused for 30 minutes) 1 hour after stroke onset, FIG. 3), the “blood flow compared to saline treated group” value is given as “increased”. Also, the “Mean neurological severity score (NSS)” value in series [3] (rtPA 10 mg/kg (10% IV bolus, rest infused for 30 minutes) 3 hours after stroke onset) stood at 6.38 ± 0.74. In addition, the “infarct volumes (% hemisphere)” value in series [3] (rtPA 10 mg/kg (10% IV bolus, rest infused for 30 minutes) 3 hours after stroke onset, 24 hours, TTC) amounted to 43.23 ± 11.03 % hemisphere.

The values are drawn from patent publication US12648942B2, “Method for treating acute ischemic stroke” (Lumosa Therapeutics Co., LTD, priority 2021, dated 2026).
